The target of assay [1] is T1, human native VWF (human, UniProt P04275 764-2813).
T1 construct: Multimeric glycoprotein; also called native VWF protein; native VWF (305 kDa)
Briefly: SPR, Biacore 8K, antibody captured on Protein A, native VWF as analyte (4.4-50 nM), single-cycle kinetics, 1:1 fit; replicate 3.
Description: (§1) The surface plasmon resonance (SPR) experiments were performed using a Biacore 8K (Cytiva) equipped with a research grade Protein A series S sensor chip. […] Flow cell 1 was left blank to serve as a reference surface. […] The complex was allowed to associate and dissociate for 120 seconds and 7200 seconds respectively. The surfaces were regenerated with 30 see injections of 10 mM glycine-HCl pH1.5.
(§2) Data were collected at a rate of 10 Hz. The data were fit to a simple 1:1 interaction model using the global data analysis option available within the Biacore Insight Evaluation software version 3.0.12.15655.

For assay [2], the target named is T1, human native VWF. Briefly: SPR, Biacore 8K, antibody captured on Protein A, native VWF as analyte (4.4-50 nM), single-cycle kinetics, 1:1 fit; replicate 2.
Description: as §1, §2
Assay [3] has as its target human full-length VWF (human, UniProt P04275 764-2813). Briefly: SPR, Biacore T200, antibody captured on Protein A, full-length VWF as analyte, single-cycle kinetics.
Assay [4] concerns the target T1, human native VWF. Briefly: ELISA, native VWF coated at 20 ng/well, semi-log dilution of the mAb from 10 µg/ml, anti-human IgG-HRP/TMB.
Description: (§3) Purified monoclonal antibodies originally derived from scFvs selected from rabbit immune library were tested for binding towards C1-C6-Fc, VWFAD4-C6, BSA (100 ng/well) and human native VWF (Imperial College, 20 ng/well). […] Protein targets were immobilized overnight on ELISA plates, blocked and incubated with a semi-log dilution series of purified recombinant monoclonal antibodies (starting concentration 10 μg/ml), averages of duplicate values are shown. Antibody binding towards human native VWF, VWFAD4-C6 and BSA were detected with antihuman IgG-HRP or anti-human IgG-HRP and TMB staining. ELISA reactivities towards C1-C6-Fc were performed in a separate ELISA experiment and were detected with anti-human IgGκ-HRP and TMB staining.
Assay [5] concerns the target T1, human native VWF. Briefly: SPR, Biacore 8K, antibody captured on Protein A, native VWF as analyte (4.4-50 nM), single-cycle kinetics, 1:1 fit; replicate 1.
Description: as §1, §2
In assay [6] the target is T1, human native VWF. Briefly: ELISA, native VWF coated at 20 ng/well, semi-log dilution of the mAb from 10 µg/ml, anti-human IgG-HRP/TMB. This is another data set of the same source.
Description: as §3

Where two headings read alike, the source gives them in different places.

B1: 3-H9 (antibody, human IgG1, V domains shown)
VH: QSLEESGGRLVTPGTPLTLTCSVSGFSLSNYDMSWVRQAPGKGLEWIGSIHAIGITYYANWAEGRFTISKTSTTVDLKMTSLTTEDTATYFCARGLVDLNMWGPGTLVTVSS
VL: AIKMTQTPSSVSVAVGGTVTINCQSSQSVYSNNLLSWYQQKPGQPPKLLIYDASTLESGVPSRFKGSGSGTQFTLTISGVQCEDAATYYCQGSYYSSGWYNTFGGGTEVVVE
notes: Rabbit-derived variable domains expressed as human IgG1; also called clone 3-H9; antibody 3-H9
Turning to B1, the Kd in assay [1] worked out at 0.025 nM; in assay [2], 0.084 nM; in assay [3] it was 0.0603 nM; in assay [5], 0.0487 nM. Besides, in assay [4], the “EC50 (read off the curve)” value is approximately 8 ng/mL.

B2: 1-D5 (antibody, human IgG1, V domains shown)
VH: QQQLVESGGRLVTPGTPLTLTCAVSGFSLNNYIMGWVRQAPGKGLEYIGIISTGGSTYYASWAKGRFTISRTSTTMDLKMTSLTTEDTATYFCARGGSSAGAGFNIWGPGTLVTVSS
VL: DIVMTQTPSSVSAAVGDTVTIQCQASQSINSGLAWYQQKPGQPPKRLIYKASTLASGVPSRFRGSGSGTDFTLTISDLECADAATYYCQSYHYISANGATFGGGTEVVVE
notes: Rabbit-derived variable domains expressed as human IgG1; also called clone 1-D5; antibody 1-D5
For the molecule B2, the Kd in assay [1] worked out at 0.0641 nM; in assay [2], 0.0381 nM; in assay [5], 0.025 nM. For the same molecule, in assay [6], the “EC50 (read off the curve)” value is approximately 6 ng/mL.

These data come from patent publication US20240228660A1 (IP2IPO INNOVATIONS, published 2024).
